Reference: patent US20090317825

Target: human GST-E1 (Boston Biochem) (UniProt P22314)
Sequence (P22314 whole entry): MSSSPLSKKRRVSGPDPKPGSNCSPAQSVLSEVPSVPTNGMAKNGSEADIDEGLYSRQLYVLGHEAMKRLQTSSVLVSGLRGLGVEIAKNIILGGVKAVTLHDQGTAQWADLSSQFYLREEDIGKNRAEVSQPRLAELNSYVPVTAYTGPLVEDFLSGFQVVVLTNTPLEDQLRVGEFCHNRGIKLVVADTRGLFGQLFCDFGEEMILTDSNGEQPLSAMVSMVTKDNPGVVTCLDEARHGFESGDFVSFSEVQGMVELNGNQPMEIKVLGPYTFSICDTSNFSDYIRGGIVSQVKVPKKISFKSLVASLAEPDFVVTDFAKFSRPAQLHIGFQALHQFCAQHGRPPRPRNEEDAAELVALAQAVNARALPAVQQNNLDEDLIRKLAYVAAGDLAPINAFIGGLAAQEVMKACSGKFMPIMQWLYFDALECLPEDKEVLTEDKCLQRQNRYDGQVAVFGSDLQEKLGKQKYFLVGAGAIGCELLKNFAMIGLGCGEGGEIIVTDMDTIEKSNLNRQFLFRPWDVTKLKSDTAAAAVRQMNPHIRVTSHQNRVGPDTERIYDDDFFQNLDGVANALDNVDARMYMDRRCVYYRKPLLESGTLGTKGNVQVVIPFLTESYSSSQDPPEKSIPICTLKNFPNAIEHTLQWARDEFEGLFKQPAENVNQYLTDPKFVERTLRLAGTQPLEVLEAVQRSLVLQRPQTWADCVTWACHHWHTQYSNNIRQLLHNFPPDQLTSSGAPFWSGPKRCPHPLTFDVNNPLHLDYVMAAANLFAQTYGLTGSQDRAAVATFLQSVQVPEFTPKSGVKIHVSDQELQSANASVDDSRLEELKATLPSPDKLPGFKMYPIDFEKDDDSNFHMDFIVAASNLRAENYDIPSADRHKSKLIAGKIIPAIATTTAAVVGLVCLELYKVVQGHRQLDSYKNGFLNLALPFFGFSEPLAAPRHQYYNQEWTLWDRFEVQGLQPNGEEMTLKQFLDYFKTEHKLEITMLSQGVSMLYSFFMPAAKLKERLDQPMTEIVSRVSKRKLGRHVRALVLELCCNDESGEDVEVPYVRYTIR

## His6-Parkin (full-length human Parkin fused to an N-terminal histidine tag, from E. coli, refolded)
  ubiquitination of Parkin in the absence of UbCH7 (biotin-ubiquitin Western blot, NeutrAvidin-HRP): some reaction product was seen in the absence of UbCH7 when Parkin was incubated with E1 and ubiquitin for 90 minutes
